From paper PMC3033224 (Nature chemical biology, 2010)
Positions of bridges follow the written chain, without caps; N, C: chain ends. Non-standard residues stand in square brackets, D forms with d. No end group written: not given here. *: point of attachment. FITC = O=C1OC2(c3ccc(O)cc3Oc3cc(O)ccc32)c2ccc(NC(=S)*)cc21; S5 = C=CCCC[C@](C)(N)C(=O)O; Nle = CCCC[C@H](N)C(=O)O; βAla = NCCC(=O)O

Target: recombinant human MCL-1ΔNΔC (amino acids 172–320) (human, UniProt Q07820 172-320)
Assay: fluorescence polarisation

Sequence of recombinant human MCL-1ΔNΔC (amino acids 172–320) (Q07820 172-320, stated change not applied): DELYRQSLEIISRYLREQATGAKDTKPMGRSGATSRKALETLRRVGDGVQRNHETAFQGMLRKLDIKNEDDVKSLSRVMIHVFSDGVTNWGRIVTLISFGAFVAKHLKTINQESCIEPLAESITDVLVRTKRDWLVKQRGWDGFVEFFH

## {FITC-βAla}-QWAREIGAQLR[S5][Nle]AD[S5]LNAQY (staple 12-16) [FITC-PUMA SAHBA]
  Kd: ≤ 50 nM

## {FITC-βAla}-DIIRNIARHLA[S5]VGD[S5][Nle]DRSI (staple 12-16) [FITC-BID SAHBA]
  Kd: ≤ 50 nM
